Variants at the floor of the assay were thinned out.
B1: TPR 5TU (parent)
chain: GGAUCUUCUCGAUCUAACAAAAAAGACAAAUCUGCCACAAAGCUUGAGAGCAUCUUCGGAUGCAGAGGCGGCAGCCUUCGGUGGCGCGAUAGCGCCAACGUUCUCAACUAUGACACGCAAAACGCGUGCUCCGUUGAAUGGAGUUUAUCAUG

Variants of: B1
Experiment: polymerase ribozyme fitness, log enrichment relative to wild type (log ratio); higher = more active; in vitro selection for triplet polymerase activity
How it was run: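 Frozen incubation at −7 °C formed the core of a single, triplicate in vitro selection round applied to PCR-built, transcribed mutant libraries of each subunit of a heterodimeric triplet polymerase ribozyme. Extended constructs were gel-excised, captured with streptavidin beads and amplified by RT-PCR, and input and output libraries were Illumina-sequenced with a filter of ≥10 input reads and ≥1 read per output. Fitness is the logarithm of genotype enrichment relative to wild-type enrichment, with inverse-variance-weighted replicate averaging, and the logarithm is base 2.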

| Variant | polymerase ribozyme fitness (log ratio) |
| --- | --- |
| U9A U15G G50C G94A U135C G143A | ≤ -4.2 |
| A91C U144C | -4.19 |
| G84U C96A | -2.84 |
| G25C A40U C87U C93A C95U | ≤ -4.2 |
| A16U U53A A66G C87A | ≤ -4.2 |
| C96G C116G | 0.127 |
| G126A A138C | -3.73 |
| U6G A20C A22G A26C C57A C87A A120G | ≤ -4.2 |
| C51G C95U | -2.73 |
| A52C U56A C96A A110G | -3.99 |
| G81A C95U | -1.88 |
| C87U G136C | -3.65 |
| U130C | 1.27 |
| U4A G48U C57G C93U G136A U146G | -2.55 |
| A28C A52G G88C A89G U101C C105G | ≤ -4.2 |
| A22C A28C A40G C43U U56G C85U | ≤ -4.2 |
| U31A U134A | -1.82 |
| A20G G25C G58C A106U | -3.93 |
| U53A C54U C85G | -2.55 |
| A19C A60G C96U | 0.412 |
| U55A G58C A97G | 0.512 |
| A30U A73U A98U U135G | ≤ -4.2 |
| C54A U101G C108U A115U G117U C129U G133A | ≤ -4.2 |
| G88U U127C | -4.15 |

| Variant | polymerase ribozyme fitness (log ratio) |
| --- | --- |
| C57U A97U | -1.22 |
| A26G C27G A40G C57U C85U C118U | -3.9 |
| A113U C116U | -1.33 |
| U44G A49U G84A U90G C131U U135G G136A | ≤ -4.2 |
| A22G C54U | 0.651 |
| A29U G92C U102C C116U | ≤ -4.2 |
| C36A G92A | -3.98 |
| C32A C87A | ≤ -4.2 |
| A19U C96G A142C | -2.72 |
| C27G A30G A39U C87A | ≤ -4.2 |
| G143U G152A | -3.69 |
| C54A C87G A98G | ≤ -4.2 |
| U6A A19C U56A G83A G124C | -1.45 |
| A12G A16C A119U A121G U135C U146A A150G | -4.12 |
| C14A C69G C75A G92U G140U | ≤ -4.2 |
| A16U C38U C51U A73G G92U G94A A98C U151A | -3.96 |
| C87U C99G | -1.97 |
| U15G C27G C76U C87G | ≤ -4.2 |
| C10A C93U G140C | ≤ -4.2 |
| U56A C118G A150G | -2.41 |
| G81A A107U | -3.89 |
| U45G C116U | 0.00932 |
| G83U A89G C103A C108G U134C A142C | ≤ -4.2 |
| G11U A39U C57U G70A U101G | ≤ -4.2 |

| Variant | polymerase ribozyme fitness (log ratio) |
| --- | --- |
| C27A A40G U55A G83C | ≤ -4.2 |
| A16G A26U C35A C51G U61A C87G A120U C129G | ≤ -4.2 |
| G112A U148C | -4.13 |
| C87G A107G | ≤ -4.2 |
| A26G C27U G46U G50U C75A | ≤ -4.2 |
| C85A A115C | -1.64 |
| A41C C87G C114U | ≤ -4.2 |
| C14G | -2.09 |
| A20C G50U G83U | -0.904 |
| A89G U134C | -0.372 |
| C32G G59A G83A A98C A110G | -4.09 |
| U53C G58A C99G | -0.95 |
| C51U G86C | -2.98 |
| A47C C69A C87U G100U A121G G143U | ≤ -4.2 |
| A91G A142C | -3.5 |
| G84C A97G | -1.95 |
| A16G G128U | -3.4 |
| A16C C96A U109C U148A | ≤ -4.2 |
| U53A A91G G126U G140U | ≤ -4.2 |
| G11A A12C A23C G46A A73U G80C A97U U109A U145A | ≤ -4.2 |
| A52C G67A G74U G86U C93U A115G | ≤ -4.2 |
| A73U C95U G140A A142C | ≤ -4.2 |
| G80A C99G U127C | -2.19 |
| U55G C69U U78A A91U C93U G141A | ≤ -4.2 |

| Variant | polymerase ribozyme fitness (log ratio) |
| --- | --- |
| A23G U90A C93U C105U C125U | ≤ -4.2 |
| A39U A49C U55A C87U C116G | ≤ -4.2 |
| U82G C93U C131G G140U U146A | ≤ -4.2 |
| A12C A24U A37G A52C C75U C93U | ≤ -4.2 |
| C14G G58A | -2.24 |
| G58A G59A C96A | 0.0408 |
| U33G A41C C43U G50A G152U | -4.07 |
| A20U A41C G50A G141A | -4.03 |
| G126U C149U | -1.96 |
| A39C C57G A89U A97G | -3.41 |
| A39U U102C | -4.01 |
| A12U A47G C76A C85G | -3.78 |
| A17C C95U | 0.45 |
| U53G G58A | -1.53 |
| C96U U104G | -1.59 |
| A23U G50A C95U A137G | ≤ -4.2 |
| U55A U56A A66C G70C C108U | ≤ -4.2 |
| U6G C79A G84C G152A | ≤ -4.2 |
| A22U U53A G88A C116G A142G A150C | ≤ -4.2 |
| C8U A49U A52G | -3.79 |
| U45C G84A | -1.08 |
| U55A C85G C114A A142C U151A | -4.19 |
| A21U C38A G50C U55G C69A C76A G80A U90G | ≤ -4.2 |
| C99G A107C G143C | ≤ -4.2 |

| Variant | polymerase ribozyme fitness (log ratio) |
| --- | --- |
| G58A A89G G94A | -1.91 |
| C27U A60U | -1.43 |
| U15G A21C A26U C38G G92A A113C | ≤ -4.2 |
| G25U A30G C51A C105U G133C | ≤ -4.2 |
| G80A G84A C116A U135G | ≤ -4.2 |
| G58C C95U A150C | -3.72 |
| U56G A73G U101C A119G U148C | -4.08 |
| C125A | -0.171 |
| A3C A17C A19U G25C C93U A115G A120U | ≤ -4.2 |
| U53A G128C A137C U148G C149G | ≤ -4.2 |
| U45A A47U U77G C114G A122U | ≤ -4.2 |
| C5A A21C C35U G74C G128U U139G | ≤ -4.2 |
| U7G C14G A52C U55C G80A G86U C87A | ≤ -4.2 |
| A37C G80A G86A | -2.42 |
| G34U A37G G50U A89C G92A A138U | ≤ -4.2 |
| C5U A17G A49G U53G C85A A122C G141C | ≤ -4.2 |
| A60U C131G | -3.54 |
| U44C G86U C103G G140A U148A | ≤ -4.2 |
| A37G U56A A97G | -2.85 |
| C10U | -2.16 |
| U4C A52U U82G C96A | -3.56 |
| G83U C95G G124U U148C | ≤ -4.2 |
| A12G G84A | -0.68 |
| A19U U33A G34A C79A C118U C125A C132U G133A A142C U148G | ≤ -4.2 |

| Variant | polymerase ribozyme fitness (log ratio) |
| --- | --- |
| U45A G58A G83A U148C | ≤ -4.2 |
| A37G C54U G59C C69U | -1.86 |
| A52U G84A | -2.18 |
| G59A G133U G136C U148C | ≤ -4.2 |
| A22U C35A U55A U56G G74A C85G | ≤ -4.2 |
| A20U A41U C63A A106G U145A | -2.83 |
| A17C U55G C57A G59C C85A A115G A119U | -2.46 |
| C35U C95A | -0.608 |
| U13G C85U A106G G126U G140C | -3.96 |
| G48U U77C C79G G143U | ≤ -4.2 |
| A91C U102G A138C | ≤ -4.2 |
| A19G C69G C76U U82G G88A G141U A150C | ≤ -4.2 |
| A40C C85G C108G | ≤ -4.2 |
| A17U U53G C57U G59C G117U | -0.451 |
| C125U U148G | ≤ -4.2 |
| U31A C93U | 0.0654 |
| G59A A60C G126A | -0.62 |
| A47G C85G U90C G124U | ≤ -4.2 |
| U56C G94C | 0.00198 |
| G80A | -0.0737 |
| C18A C85A G112C C116U | ≤ -4.2 |
| C76A C96U A121C | 0.584 |
| A17U C38A U44A G70C U82C C95U | ≤ -4.2 |
| C51U G124A G133C G140A A150G | ≤ -4.2 |

| Variant | polymerase ribozyme fitness (log ratio) |
| --- | --- |
| G94C A115U | -2.98 |
| A21C C96U A122C | -0.0635 |
| U55A C93A | -2.96 |
| C35G C76U G92A C123G A137U | ≤ -4.2 |
| A37G C87U | -2.16 |
| A60G G100A U151G | ≤ -4.2 |
| U56A G58U C63A A115U C118U | -1.35 |
| U4C U7G C87A G100A U101A | ≤ -4.2 |
| U56A G74U C85G G133U | ≤ -4.2 |
| U55G G86U A89G A121C A147U | -3 |
| A39C C87U | -2.12 |
| A21U C93A | -1.74 |
| U4A A22C G48U C75G G84A | ≤ -4.2 |
| A64G A91C A115G U145C | -3.96 |
| C18G G50U G88A | -4.08 |
| A3U C27G C38U G48U G58U C79G G92A C105U G117U G143U | ≤ -4.2 |
| A28U U45A C57U A60G C75G G94A G126C | ≤ -4.2 |
| G11A G84A C85U G88A C99A C131G U139C | ≤ -4.2 |
| A21C C36A C95G | -3.86 |
| G34A C35A G83C A106U G133U A137G G141U | ≤ -4.2 |
| A37U A40C G68C G86U C95U G136A A137C | ≤ -4.2 |
| U7G C57U G59C G88A C93A A115C | ≤ -4.2 |
| C8A C85A | -3.27 |

From the RNAGym collection of RNA variant scans (doi:10.1073/pnas.2313332121)
